The target in the assay is T1, Bone morphogenetic protein 2 (BMP-2), recombinant human (Homo sapiens) (UniProt P12643).
T1 sequence: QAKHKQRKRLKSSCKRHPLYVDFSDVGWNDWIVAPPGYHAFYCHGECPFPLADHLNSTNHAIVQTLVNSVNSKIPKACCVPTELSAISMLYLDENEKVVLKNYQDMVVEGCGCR
Kind of assay: cell-based or functional assay.

B1: noggin (protein, UniProt Q13253 28-232, looked up, species assumed)
Noggin: QHYLHIRPAPSDNLPLVDLIEHPDPIFDPKEKDLNETLLRSLLGGHYDPGFMATSPPEDRPGGGGGAAGGAEDLAELDQLLRQRPSGAMPSEIKGLEFSEGLAQGKKQRLSKKLRRKLQMWLWSQTFCPVLYAWNDLGSRFWPRYVKVGSCFSKRSCSVPEGMVCKPSKSVHLTVLRWRCQRRGGQRCGWIPIQYPIISECKCSC
Turning to B1, the inhibition of BMP-2-induced ALP activity in C2C12 cells; noggin at 30 ng/ml, BMP-2 at 100 ng/ml, no GAG came to 14 percent; the inhibition of BMP-2-induced ALP activity in C2C12 cells; noggin at 30 ng/ml, in the presence of HS+ve came to 2 percent; the inhibition of BMP-2-induced ALP activity in C2C12 cells; noggin at 30 ng/ml, in the presence of HSpm is 4 percent; the inhibition of BMP-2-induced ALP activity in C2C12 cells; noggin at 100 ng/mL, in the presence of HS-ve was 75 percent. For the same molecule, the inhibition of BMP-2-induced ALP activity in C2C12 cells; noggin at 100 ng/ml, BMP-2 at 100 ng/ml, no GAG was determined as 95 percent; the inhibition of BMP-2-induced ALP activity in C2C12 cells; noggin at 100 ng/ml, in the presence of HS+ve turned out to be 43 percent; the inhibition of BMP-2-induced ALP activity in C2C12 cells; noggin at 100 ng/ml, in the presence of HSpm came to 62 percent.
